Assays:
human α-thrombin (FIIa) = human α-thrombin (FIIa) (UniProt P00734)
[1] = tested on: Lys(Dnp)-ATNATIDPRIVGG-Lys(Abz)
[2] = tested on: Lys(Dnp)-ATNATQDPRIVGG-Lys(Abz)
[3] = tested on: Lys(Dnp)-ATNATTDPRIVGG-Lys(Abz)
[4] = tested on: Lys(Dnp)-ATNATKYPRIVGG-Lys(Abz)
[5] = tested on: Lys(Dnp)-ATNATFIPRIVGG-Lys(Abz)
[6] = tested on: Lys(Dnp)-ATNATPAPRIVGG-Lys(Abz)
[7] = tested on: Lys(Dnp)-ATNATTNPRIVGG-Lys(Abz)
[8] = tested on: Lys(Dnp)-ATNATVSPRIVGG-Lys(Abz)
[9] = tested on: Lys(Dnp)-ATNATDIPRIVGG-Lys(Abz)
[10] = tested on: Lys(Dnp)-NESTTKIKPRIVGG-Lys(Abz)
[11] = tested on: Lys(Dnp)-ATNATKHPRIVGG-Lys(Abz)
[12] = tested on: Lys(Dnp)-ATNATFWPRIVGG-Lys(Abz)
[13] = tested on: Lys(Dnp)-ATNATINPRIVGG-Lys(Abz)
[14] = tested on: Lys(Dnp)-ATNATEVPRIVGG-Lys(Abz)
[15] = tested on: Lys(Dnp)-ATNATKTPRIVGG-Lys(Abz)
[16] = tested on: Lys(Dnp)-EDSDRAIEGRIVGG-Lys(Abz)
[17] = tested on: Lys(Dnp)-SEYQTFFNPRIVGG-Lys(Abz)
[18] = tested on: Lys(Dnp)-ATNATWPPRIVGG-Lys(Abz)
[19] = tested on: Lys(Dnp)-ATNATHHPRIVGG-Lys(Abz)
[20] = tested on: Lys(Dnp)-DFLAEGGGPRIVGG-Lys(Abz)
[21] = tested on: Lys(Dnp)-ATNATQNPRIVGG-Lys(Abz)
[22] = tested on: Lys(Dnp)-ATNATKMPRIVGG-Lys(Abz)
[23] = tested on: Lys(Dnp)-ATNATQQPRIVGG-Lys(Abz)
[24] = tested on: Lys(Dnp)-ATNATDHPRIVGG-Lys(Abz)
[25] = tested on: Lys(Dnp)-ATNATVLPRIVGG-Lys(Abz)
[26] = tested on: Lys(Dnp)-ATNATAVPRIVGG-Lys(Abz)
[27] = tested on: Lys(Dnp)-ATNATFQPRIVGG-Lys(Abz)
[28] = tested on: Lys(Dnp)-ATNATHGPRIVGG-Lys(Abz)
[29] = tested on: Lys(Dnp)-ATNATHNPRIVGG-Lys(Abz)
[30] = tested on: Lys(Dnp)-ATNATVFPRIVGG-Lys(Abz)
[31] = tested on: Lys(Dnp)-ATNATPFPRIVGG-Lys(Abz)
[32] = tested on: Lys(Dnp)-ATNATSSPRIVGG-Lys(Abz)
[33] = tested on: Lys(Dnp)-ATNATLVPRIVGG-Lys(Abz)
[34] = tested on: PAR 1 control substrate sequence [Lys(Dnp)-ATNATLDPRIVGG-Lys(Abz)]
[35] = tested on: Lys(Dnp)-ATNATNPPRIVGG-Lys(Abz)
[36] = tested on: Lys(Dnp)-ATNATANPRIVGG-Lys(Abz)
[37] = tested on: Lys(Dnp)-ATNATEAPRIVGG-Lys(Abz)
[38] = tested on: Lys(Dnp)-ATNATEPPRIVGG-Lys(Abz)
[39] = tested on: Lys(Dnp)-ATNATNDPRIVGG-Lys(Abz)
[40] = tested on: Lys(Dnp)-ATNATARPRIVGG-Lys(Abz)
[41] = tested on: Lys(Dnp)-DNEEGFFSARIVGG-Lys(Abz)
[42] = tested on: Lys(Dnp)-ATNATHFPRIVGG-Lys(Abz)
[43] = tested on: Lys(Dnp)-ATNATTEPRIVGG-Lys(Abz)
[44] = tested on: Lys(Dnp)-ATNATDFPRIVGG-Lys(Abz)
[45] = tested on: Lys(Dnp)-ATNATRIPRIVGG-Lys(Abz)
[46] = tested on: Lys(Dnp)-ATNATPDPRIVGG-Lys(Abz)
[47] = tested on: Lys(Dnp)-ATNATDEPRIVGG-Lys(Abz)
[48] = tested on: Lys(Dnp)-DQVTVAMTPRIVGG-Lys(Abz)
[49] = tested on: Lys(Dnp)-ATNATYKPRIVGG-Lys(Abz)
[50] = tested on: Lys(Dnp)-ATNATNGPRIVGG-Lys(Abz)
[51] = tested on: Lys(Dnp)-ATNATDKPRIVGG-Lys(Abz)
[52] = tested on: Lys(Dnp)-ATNATGNPRIVGG-Lys(Abz)
[53] = tested on: Lys(Dnp)-ATNATAMPRIVGG-Lys(Abz)
[54] = tested on: Lys(Dnp)-ATNATQPPRIVGG-Lys(Abz)
[55] = tested on: FX ins[194]>[DFLAEGGGPR]-HPC4
[56] = tested on: 40k-HEP-[N]-FX ins[194]>[DFLAEGGGVR]-HPC4
[57] = tested on: 73k-HEP-[N]-FX ins[194]>[DFLAEGGGVR]-HPC4
[58] = tested on: 21k-HEP-[N]-FX ins[194]>[DFLAEGGGVR]-HPC4
[59] = tested on: FX ins[194]>[DFLAEGGGVR]-HPC4
[60] = tested on: FpA_P quenched fluorescence substrate Lys(Dnp)-DFLAEGGGPRIVGG-Lys(Abz)
[61] = tested on: At least 20 sequences selected from the QF-substrate library

FX [191-194]>[LTPR]-HPC4, sequence (chain, as listed by the source): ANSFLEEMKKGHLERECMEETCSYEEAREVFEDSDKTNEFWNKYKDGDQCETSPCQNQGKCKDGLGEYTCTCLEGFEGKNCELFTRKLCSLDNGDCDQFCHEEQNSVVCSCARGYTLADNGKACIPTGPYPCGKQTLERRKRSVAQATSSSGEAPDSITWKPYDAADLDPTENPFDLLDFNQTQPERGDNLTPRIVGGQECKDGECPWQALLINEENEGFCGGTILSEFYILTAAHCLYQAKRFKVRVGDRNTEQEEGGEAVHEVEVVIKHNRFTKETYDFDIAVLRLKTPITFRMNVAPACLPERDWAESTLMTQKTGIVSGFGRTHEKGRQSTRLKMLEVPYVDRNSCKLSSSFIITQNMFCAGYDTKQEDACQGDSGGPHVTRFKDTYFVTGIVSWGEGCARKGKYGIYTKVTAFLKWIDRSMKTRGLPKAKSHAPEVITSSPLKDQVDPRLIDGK
FX ins[194]>[DFLAEGGGVR]-HPC4, sequence (chain, as listed by the source): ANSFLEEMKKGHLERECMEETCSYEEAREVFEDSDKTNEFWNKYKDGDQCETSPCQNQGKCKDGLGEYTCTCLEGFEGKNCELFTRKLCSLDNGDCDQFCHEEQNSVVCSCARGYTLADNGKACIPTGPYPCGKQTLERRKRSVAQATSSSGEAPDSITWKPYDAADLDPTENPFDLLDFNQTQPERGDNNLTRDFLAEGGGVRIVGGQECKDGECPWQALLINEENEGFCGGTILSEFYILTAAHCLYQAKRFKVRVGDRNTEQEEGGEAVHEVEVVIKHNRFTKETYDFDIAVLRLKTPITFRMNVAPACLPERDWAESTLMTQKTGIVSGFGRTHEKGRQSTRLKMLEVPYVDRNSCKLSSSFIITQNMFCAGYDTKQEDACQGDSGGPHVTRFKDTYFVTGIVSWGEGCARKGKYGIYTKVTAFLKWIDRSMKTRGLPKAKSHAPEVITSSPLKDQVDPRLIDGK
FX ins[194]>[DFLAEGGGPR]-HPC4, sequence (chain, as listed by the source): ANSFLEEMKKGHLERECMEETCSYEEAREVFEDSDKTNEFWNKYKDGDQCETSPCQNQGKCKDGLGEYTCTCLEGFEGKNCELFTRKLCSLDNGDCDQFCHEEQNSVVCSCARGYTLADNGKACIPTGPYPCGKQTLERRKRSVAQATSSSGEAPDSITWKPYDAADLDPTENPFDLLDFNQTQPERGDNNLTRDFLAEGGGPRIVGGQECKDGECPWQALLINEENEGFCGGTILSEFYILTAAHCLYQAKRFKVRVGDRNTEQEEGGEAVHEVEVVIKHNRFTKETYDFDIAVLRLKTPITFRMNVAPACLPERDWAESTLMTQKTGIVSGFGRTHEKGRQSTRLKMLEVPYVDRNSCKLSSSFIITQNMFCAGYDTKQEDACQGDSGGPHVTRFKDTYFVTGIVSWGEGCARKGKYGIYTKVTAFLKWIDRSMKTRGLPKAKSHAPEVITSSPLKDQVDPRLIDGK

Substance: FX-HPC4
- kcat/KM (human α-thrombin (FIIa)): No Activity

Substance: Human plasma purified α-thrombin
- kcat/KM [1]: 2000 M⁻¹ s⁻¹
- kcat/KM [2]: 500 M⁻¹ s⁻¹
- kcat/KM [3]: 1000 M⁻¹ s⁻¹
- kcat/KM [4]: 700 M⁻¹ s⁻¹
- kcat/KM [5]: 7000 M⁻¹ s⁻¹
- kcat/KM [6]: 7000 M⁻¹ s⁻¹
- kcat/KM [7]: 600 M⁻¹ s⁻¹
- FIIa kcat/KM [8]: 7600 M⁻¹ s⁻¹
- kcat/KM [8]: 7600 M⁻¹ s⁻¹
- kcat/KM [9]: 30 M⁻¹ s⁻¹
- kcat/KM [10]: 20000 M⁻¹ s⁻¹
- kcat/KM [11]: 900 M⁻¹ s⁻¹
- FIIa kcat/KM [12]: 20000 M⁻¹ s⁻¹
- kcat/KM [12]: 20000 M⁻¹ s⁻¹
- kcat/KM [13]: 10000 M⁻¹ s⁻¹
- kcat/KM [14]: 200 M⁻¹ s⁻¹
- kcat/KM [15]: 610 M⁻¹ s⁻¹
- kcat/KM [16]: 0 M⁻¹ s⁻¹
- kcat/KM [17]: 20000 M⁻¹ s⁻¹
- FIIa kcat/KM [18]: 9700 M⁻¹ s⁻¹
- kcat/KM [18]: 9700 M⁻¹ s⁻¹
- kcat/KM [19]: 2000 M⁻¹ s⁻¹
- kcat/KM [20]: 40000 M⁻¹ s⁻¹
- kcat/KM [21]: 2000 M⁻¹ s⁻¹
- kcat/KM [22]: 800 M⁻¹ s⁻¹
- kcat/KM [23]: 10000 M⁻¹ s⁻¹
- kcat/KM [24]: 1000 M⁻¹ s⁻¹
- kcat/KM [25]: 5000 M⁻¹ s⁻¹
- FIIa kcat/KM [26]: 9700 M⁻¹ s⁻¹
- kcat/KM [26]: 9700 M⁻¹ s⁻¹
- FIIa kcat/KM [27]: 30000 M⁻¹ s⁻¹
- kcat/KM [27]: 30000 M⁻¹ s⁻¹
- kcat/KM [28]: 1000 M⁻¹ s⁻¹
- kcat/KM [29]: 800 M⁻¹ s⁻¹
- FIIa kcat/KM [30]: 8400 M⁻¹ s⁻¹
- kcat/KM [30]: 8400 M⁻¹ s⁻¹
- FIIa kcat/KM [31]: 9000 M⁻¹ s⁻¹
- kcat/KM [31]: 9000 M⁻¹ s⁻¹
- kcat/KM [32]: 1000 M⁻¹ s⁻¹
- FIIa kcat/KM [33]: 30000 M⁻¹ s⁻¹
- kcat/KM [33]: 30000 M⁻¹ s⁻¹
- kcat/KM [34]: 3000 M⁻¹ s⁻¹
- kcat/KM [35]: 9 M⁻¹ s⁻¹
- kcat/KM [36]: 4000 M⁻¹ s⁻¹
- kcat/KM [37]: 400 M⁻¹ s⁻¹
- kcat/KM [38]: 2 M⁻¹ s⁻¹
- kcat/KM [39]: 3 M⁻¹ s⁻¹
- FIIa kcat/KM [40]: 20000 M⁻¹ s⁻¹
- kcat/KM [40]: 20000 M⁻¹ s⁻¹
- kcat/KM [41]: 300 M⁻¹ s⁻¹
- kcat/KM [42]: 1000 M⁻¹ s⁻¹
- kcat/KM [43]: 700 M⁻¹ s⁻¹
- kcat/KM [44]: 600 M⁻¹ s⁻¹
- kcat/KM [45]: 1000 M⁻¹ s⁻¹
- kcat/KM [46]: 2000 M⁻¹ s⁻¹
- kcat/KM [47]: 0.0004 M⁻¹ s⁻¹
- kcat/KM [48]: 30000 M⁻¹ s⁻¹
- FIIa kcat/KM [49]: 5000 M⁻¹ s⁻¹
- kcat/KM [49]: 5000 M⁻¹ s⁻¹
- kcat/KM [50]: 500 M⁻¹ s⁻¹
- kcat/KM [51]: 10 M⁻¹ s⁻¹
- kcat/KM [52]: 700 M⁻¹ s⁻¹
- kcat/KM [53]: 9000 M⁻¹ s⁻¹
- kcat/KM [54]: 0 M⁻¹ s⁻¹

Substance: human α-thrombin (FIIa)
- activation rate (kcat/KM) by α-thrombin, relative to FX ins[194]>[DFLAEGGGVR]-HPC4 [55]: This activation rate is 10× the observed activation rate for a variant having the unmodified FpA sequence (FX ins[194]>[DFLAEGGGVR]-HPC4)
- kinetic parameters (kcat, KM and kcat/KM) of activation, compared with the unconjugated molecule [56]: there is no significant effect of hepylation on the observed kinetic parameters for the tested molecule
- kinetic parameters (kcat, KM and kcat/KM) of activation, compared with the unconjugated molecule [57]: there is no significant effect of hepylation on the observed kinetic parameters for the tested molecule
- kinetic parameters (kcat, KM and kcat/KM) of activation, compared with the unconjugated molecule [58]: there is no significant effect of hepylation on the observed kinetic parameters for the tested molecule
- kcat of activation by α-thrombin, relative to FX [191-194]>[MTPR]-HPC4 [59]: each of which have 5-10 fold higher kcat values than FX [191-194]>[MTPR]-HPC4
- kcat of activation by α-thrombin, relative to FX [191-194]>[MTPR]-HPC4 (FX [191-194]>[LTPR]-HPC4): each of which have 5-10 fold higher kcat values than FX [191-194]>[MTPR]-HPC4
- cleavage rate (kcat/KM) by thrombin [60]: The most improved natural substrate was shown to be the FpA_P sequence, which has a proline residue at X2 instead of the naturally occurring valine
- cleavage rate (kcat/KM) by thrombin, fold improvement over the parent PAR-1 sequence [61]: >20-fold improved cleavage rates (kcat/KM) over the parent PAR-1 sequence

— patent publication US20160024487
